Laboratory results as given in publication PMC7468209, “The Nucleoid Occlusion Protein SlmA Binds to Lipid Membranes” (mBio, 2020).

Molecular target: the molecule itself
Test: AUC; sedimentation velocity, 5 uM SlmA without SBS, working buffer (50 mM Tris-HCl pH 7.5, 5 mM MgCl2) with 100, 300 or 500 mM KCl, 48,000 rpm, 20 C, absorbance at 230 nm, c(s) in SEDFIT

B1: SlmA (natural protein, E. coli, UniProt P0C093 1-198, looked up)
chain: MAEKQTAKRNRREEILQSLALMLESSDGSQRITTAKLAASVGVSEAALYRHFPSKTRMFDSLIEFIEDSLITRINLILKDEKDTTARLRLIVLLLLGFGERNPGLTRILTGHALMFEQDRLQGRINQLFERIEAQLRQVLREKRMREGEGYTTDETLLASQILAFCEGMLSRFVRSEFKYRPTDDFDARWPLIAAQLQ
modifications: Alexa Fluor 488 on amino groups (0.3-0.6 mol dye per mol protein), only in the tracer fraction (1 uM of 5 uM) of the microdroplet experiments; unlabelled in the sedimentation velocity experiments
notes: SlmA, nucleoid occlusion protein of Escherichia coli; also called nucleoid occlusion protein SlmA; nucleoid occlusion factor SlmA
  stoichiometry N: 2
